Biological target: T1, CFP-AR-YFP (full length AR with cyan fluorescent protein and yellow fluorescent protein fused to either end) (UniProt P10275 1-920)
T1 construct: Reporter stably expressed in GT1-7 CARY cells; GT1-7 CARY lysates may also contain endogenous mouse AR; also called CARY; C-AR-Y; not shown: cyan fluorescent protein (CFP); yellow fluorescent protein (YFP)
T1 sequence (looked up): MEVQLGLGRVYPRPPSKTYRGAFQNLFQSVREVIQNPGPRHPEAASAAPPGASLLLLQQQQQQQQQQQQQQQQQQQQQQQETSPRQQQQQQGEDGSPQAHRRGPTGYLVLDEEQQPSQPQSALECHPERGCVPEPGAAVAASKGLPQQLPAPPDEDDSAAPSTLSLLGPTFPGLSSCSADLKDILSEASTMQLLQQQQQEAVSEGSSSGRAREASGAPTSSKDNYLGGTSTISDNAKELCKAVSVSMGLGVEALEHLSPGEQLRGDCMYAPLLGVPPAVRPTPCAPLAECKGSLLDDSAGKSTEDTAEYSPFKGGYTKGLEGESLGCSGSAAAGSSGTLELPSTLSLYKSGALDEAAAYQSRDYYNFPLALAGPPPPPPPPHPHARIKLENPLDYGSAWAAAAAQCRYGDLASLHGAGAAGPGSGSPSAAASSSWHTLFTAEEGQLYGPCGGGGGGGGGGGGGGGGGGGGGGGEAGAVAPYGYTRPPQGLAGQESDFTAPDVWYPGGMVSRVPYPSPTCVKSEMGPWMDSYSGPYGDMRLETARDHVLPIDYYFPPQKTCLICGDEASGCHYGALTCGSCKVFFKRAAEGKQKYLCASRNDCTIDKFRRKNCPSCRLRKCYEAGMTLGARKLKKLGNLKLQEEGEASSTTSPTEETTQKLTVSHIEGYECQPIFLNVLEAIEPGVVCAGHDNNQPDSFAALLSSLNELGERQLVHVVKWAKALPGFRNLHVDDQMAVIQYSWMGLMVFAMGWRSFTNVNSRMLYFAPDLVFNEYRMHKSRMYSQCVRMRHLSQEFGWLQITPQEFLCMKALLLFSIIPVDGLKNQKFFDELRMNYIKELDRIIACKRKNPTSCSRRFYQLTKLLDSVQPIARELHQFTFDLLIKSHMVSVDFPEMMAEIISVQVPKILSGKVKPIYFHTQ
Assay: co-immunoprecipitation from GT1-7 CARY cell lysates, Western blot

binding result: no binding
B1: FOXM1 (other, mouse, UniProt O08696 1-760, looked up)
chain: MRTSPRRPLILKRRRLPLPVQNAPSETSEEEAKRSPAQPEPAPAQASQEVAESSSCKFPAGIKIINHPTTPNTQVVAIPSNADIQSIITALTAKGKESGTSGPNRFILISSGGPSSHPSQPQAHSSRDSKRAEVITETLGPKPAAKGVPVPKPPGAPPRQRQESYAGGEAAGCTLDNSLTNIQWLGKMSSDGLGPCSVKQELEEKENCHLEQNRVKVEEPSGVSTSWQDSVSERPPYSYMAMIQFAINSTERKRMTLKDIYTWIEDHFPYFKHIAKPGWKNSIRHNLSLHDMFVRETSANGKVSFWTIHPSANRHLTLDQVFKPLEPGSPQSPEHLESQQKRPNPELHRNVTIKTEIPLGARRKMKPLLPRVSSYLEPIQFPVNQSLVLQPSVKVPFRLAASLMSSELARHSKRVRIAPKVLLSSEGIAPLPATEPPKEEKPLLGGEGLLPLLPIQSIKEEEMQPEEDIAHLERPIKVESPPLEEWPSPCASLKEELSNSWEDSSCSPTPKPKKSYCGLKSPTRCVSEMLVTKRREKREVSRSRRKQHLQPPCLDEPDLFFPEDSSTFRPAVELLAESSEPAPHLSCPQEEGGPFKTPIKETLPVSSTPSKSVLSRDPESWRLTPPAKVGGLDFSPVRTPQGAFGLLPDSLGLMELNTTPLKSGPLFDSPRELLNSEPFDLASDPFGSPPPPHVEGPKPGSPELQIPSLSANRSLTEGLVLDTMNDSLSKILLDISFPGLEEDPLGPDNINWSQFIPELR
notes: also called Forkhead Box Protein M1

— patent US20190167756A1 (CITY OF HOPE, published 2019)
